The record followed here is PMC11488100, “PET imaging of CXCR4 expression using [^18F]AlF-NOTA-QHY-04 for hematologic malignancy and solid tumors” (Theranostics, 2024).

Bridge positions count the residues as written; N and C are the ends. Square brackets hold non-standard residues; d marks the D form. Peptide text beside a SMILES is read from it. * marks the point of attachment. NOTA = O=C(O)CN1CCN(CC(=O)O)CCN(CC(=O)*)CC1; 2Nal = N[C@@H](Cc1ccc2ccccc2c1)C(=O)O; Pen = CC(C)(S)[C@H](N)C(=O)O; 4Amb = NCc1ccc(C(=O)O)cc1; Ahx = NCCCCCC(=O)O

Series [1] concerns NCI-H69 subcutaneous tumor xenografts. Also noted: species or system mice. To be noted: mouse, in vivo. The method, then: The xenografted mice were injected with [^18F]AlF-NOTA-QHY-04 (3.70 ± 0.74 MBq) in about 150 μL saline via the tail vein. All the PET scans were performed with micro-PET/CT (IRIS PET/CT, Inviscan, France) and the radioactivity were expressed as %ID/mL. Detailed procedures for dynamic, static imaging and blocking studies are provided in the supplemental materials. Biodistribution studies were conducted using mice with xenografted A549/CXCR4 tumors with and without blocking (n = 3). The mice were sacrificed immediately after static PET/CT 1 h post injection (p.i.), then the tumors and organs were quickly collected, weighed and counted for radioactivity by a γ-counter. The γ-counter activity readings were background- and decay-corrected and represented as the percentage of injected dose per gram of tissue (%ID/g).
7.4, 150 mM NaCl, 0.005% tween-20) with continuous shaking at 1000 rpm. Biotinylated CXCR4 was immobilized on Super Streptavidin (SSA) biosensors by immersing the sensors in a protein solution of 35 µg/mL. […]
and 1 μM NOTA-QHY-04 sample) was prepared and flowed. […] Prior to fitting, the data were baseline-subtracted and analyzed using a 1:1 binding model and the ForteBio data analysis software. Mean Kd value was determined by applying a global fit to all the data. […]
NaOH. Finally, the cell lysates were collected and measured by an automatic gamma counter (2470 Wizard2, PerkinElmer). […]

The format of series [2] is physicochemical. To be noted: pH 7.4. The procedure:
Synthesis of [18F]AlF-NOTA-QHY-04
Briefly, NOTA-QHY-04 was radiolabeled with [18F]F-, following procedures. 10-20
GBq [18F]F− produced by medical cyclotron (MINITRACE Cyclotron, GE, USA) was
captured with a QMA SepPak light cartridge (Waters Corporation, USA) and then eluted
with 300-500 μL saline (0.9% NaCl). Then, the saline containing [18F]F− was added to
reaction vial, followed by 6-12 μL AlCl3 (10 mM in 0.1M sodium acetate buffer, pH 4),
200 μL acetonitrile (≥ 99.9%, Sigma-Aldrich, USA), and 20-30 μL of NOTA-QHY-04
(20 mg/mL in metal-free water). The vial was heated for 10 min at 110°C. After cooling,
the reaction system was diluted with 10 mL of water and was transferred to a Qasis light
HLB cartridge (Waters Corporation, USA). The cartridge was then washed with 10 mL of
water to remove the free [18F]F−. Finally, the desired product was eluted and collected
with 0.6 mL of ethanol. The product was reconstituted in saline and passed through a 0.22
μm syringe filter (Pall Corporation, USA) into a sterile vial.
Octanol-water partition coefficient (logD)
The partition coefficient (logD) of [18F]AlF-NOTA-QHY-04 was determined in a […]
from each phase were measured for radioactivity using a γ-counter. […]
repeated three times to ensure the accuracy of the results. The logD was calculated by
dividing the average radioactivity in the 1 -octanol layer by that in the PBS layer, and the […]

The term logD denotes lipophilicity at a set pH, counting ionised and neutral species. For the compound `C[C@H](NC(=O)[C@H](CCCNC(=N)N)NC(=O)CCCCCNC(=O)c1ccc(CNC(=O)CN2CCN(CC(=O)O)CCN(CC(=O)O)CC2)cc1)C(=O)N[C@@H]1CSSC(C)(C)[C@@H](C(=O)O)NC(=O)[C@H](Cc2c[nH]cn2)NC(=O)[C@H](Cc2ccc3ccccc3c2)NC(=O)[C@H](CCCNC(=N)N)NC1=O` [[^18F]AlF-NOTA-QHY-04] ({NOTA-4Amb-Ahx}-RA[dC]R[2Nal]H[Pen]-OH; disulfide 3-7), in series [1], the “time of highest tumor uptake” value is “about 50 min”. This compound showed a log distribution coefficient (logD) in series [2] of -2.21 ± 0.06.
